“And” between values parts separate entries of the source, which are not always exact repeats. Equal values may be shown once. No end group written: not given here.
Tests used:
Conditions in all cases: both partners purified
kindlin-2 (KIND2) [1] = molecular target: T1, kindlin-2 (KIND2) (UniProt Q8CIB5 1-680); test: MST; apparent; KIND2 titrated to 488–β3-CT in the presence of 250-450 µM TLN1-F3; MST buffer
T1 construct: kindlin-2 (KIND2), recombinant; with the F1 loop and the PH domain (unlike ΔKIND2); source: E. coli Rosetta, purified (IMAC, SEC); not shown: His10-SUMO, N-terminal, cleaved
T1 sequence (looked up): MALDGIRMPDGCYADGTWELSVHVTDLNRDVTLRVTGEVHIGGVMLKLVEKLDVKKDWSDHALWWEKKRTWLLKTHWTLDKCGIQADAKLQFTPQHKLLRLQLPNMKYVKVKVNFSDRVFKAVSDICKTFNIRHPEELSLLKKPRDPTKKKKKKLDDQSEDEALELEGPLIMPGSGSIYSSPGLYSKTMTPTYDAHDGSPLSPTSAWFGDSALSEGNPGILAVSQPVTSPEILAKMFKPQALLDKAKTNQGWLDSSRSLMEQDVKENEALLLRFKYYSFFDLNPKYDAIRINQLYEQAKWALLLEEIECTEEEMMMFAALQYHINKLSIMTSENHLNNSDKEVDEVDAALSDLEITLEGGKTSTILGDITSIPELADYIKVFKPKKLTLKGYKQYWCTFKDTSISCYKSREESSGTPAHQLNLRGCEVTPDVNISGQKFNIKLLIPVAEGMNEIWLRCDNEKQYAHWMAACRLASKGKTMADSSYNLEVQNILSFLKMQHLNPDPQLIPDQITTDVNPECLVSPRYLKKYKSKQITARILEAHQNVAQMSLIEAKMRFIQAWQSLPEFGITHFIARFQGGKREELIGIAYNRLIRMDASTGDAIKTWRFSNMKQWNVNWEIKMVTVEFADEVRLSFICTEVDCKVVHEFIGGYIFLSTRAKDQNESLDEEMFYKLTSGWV

KIND2 Y13A [2] = molecular target: T2, KIND2 Y13A (UniProt Q8CIB5 1-680, Y13A); test: MST; unlabelled protein titrated to 50-200 nM ATTO 488-labelled β-CT peptide, no third protein; 20 mM Tris pH 7.5, 200 mM NaCl, 1 mM TCEP, 0.05% Tween-20; Kd of individual titrations (in S0002 mean and sd, n = 2)
T2 construct: kindlin-2 (KIND2), recombinant, Y13A; source: E. coli Rosetta, purified (IMAC, SEC); not shown: His10-SUMO, N-terminal, cleaved
T2 sequence (looked up): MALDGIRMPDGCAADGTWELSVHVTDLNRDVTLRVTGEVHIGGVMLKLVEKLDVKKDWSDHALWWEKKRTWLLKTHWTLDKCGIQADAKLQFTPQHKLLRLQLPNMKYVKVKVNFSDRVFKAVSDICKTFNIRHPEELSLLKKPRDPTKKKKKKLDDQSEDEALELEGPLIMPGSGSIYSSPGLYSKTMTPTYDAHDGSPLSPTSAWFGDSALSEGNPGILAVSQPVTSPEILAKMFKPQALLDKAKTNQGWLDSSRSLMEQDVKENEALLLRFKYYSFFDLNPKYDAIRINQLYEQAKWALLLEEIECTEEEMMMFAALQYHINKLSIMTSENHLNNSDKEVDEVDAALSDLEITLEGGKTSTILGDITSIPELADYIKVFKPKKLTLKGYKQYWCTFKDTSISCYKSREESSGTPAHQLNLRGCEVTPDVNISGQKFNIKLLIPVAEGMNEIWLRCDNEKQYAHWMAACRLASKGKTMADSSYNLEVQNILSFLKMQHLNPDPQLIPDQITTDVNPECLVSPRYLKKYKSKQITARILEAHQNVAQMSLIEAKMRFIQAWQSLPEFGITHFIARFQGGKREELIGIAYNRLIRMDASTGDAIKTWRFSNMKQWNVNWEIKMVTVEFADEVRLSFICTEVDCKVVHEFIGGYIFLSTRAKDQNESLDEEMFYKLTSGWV

KIND2 Y13A [3] = molecular target: T2, KIND2 Y13A; test: MST; apparent; KIND2-Y13A titrated to 488–β3-CT or KIND2 to 488–β1-spacer-CT in the presence of 300-400 µM THD1; MST buffer
THD1 K402E [4] = molecular target: T3, THD1 K402E (UniProt P26039 1-405, K402E); test: MST; unlabelled protein titrated to 50-200 nM ATTO 488-labelled β-CT peptide, no third protein; 20 mM Tris pH 7.5, 200 mM NaCl, 1 mM TCEP, 0.05% Tween-20; Kd of individual titrations (in S0002 mean and sd, n = 2)
T3 construct: talin-1 (TLN1) head domain, residues 1-405, K402E; source: E. coli (DE3) Rosetta 2, purified (IMAC, SEC); not shown: His10-SUMO, N-terminal, cleaved
T3 sequence (P26039 1-405 K402E): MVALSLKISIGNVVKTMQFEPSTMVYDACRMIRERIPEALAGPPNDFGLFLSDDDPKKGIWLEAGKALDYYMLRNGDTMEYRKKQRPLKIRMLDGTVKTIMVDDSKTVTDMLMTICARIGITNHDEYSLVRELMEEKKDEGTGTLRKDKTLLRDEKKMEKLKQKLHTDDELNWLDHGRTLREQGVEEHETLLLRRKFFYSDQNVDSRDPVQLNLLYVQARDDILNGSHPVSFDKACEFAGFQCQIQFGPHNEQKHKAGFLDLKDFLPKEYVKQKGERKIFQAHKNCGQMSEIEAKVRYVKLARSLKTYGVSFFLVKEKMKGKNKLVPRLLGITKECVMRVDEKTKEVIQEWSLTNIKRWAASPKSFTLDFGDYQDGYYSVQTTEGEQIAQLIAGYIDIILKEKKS

kindlin-2 (KIND2) [5] = molecular target: T1, kindlin-2 (KIND2); test: MST; apparent; KIND2 titrated to 488–β3-CT in the presence of 100–400 µM THD2; MST buffer
[6] = molecular target: T4, talin-1 head domain (THD1) (UniProt P26039 1-405); test: MST; unlabelled protein titrated to 50-200 nM ATTO 488-labelled β-CT peptide, no third protein; 20 mM Tris pH 7.5, 200 mM NaCl, 1 mM TCEP, 0.05% Tween-20; Kd of individual titrations (in S0002 mean and sd, n = 2)
T4 construct: talin-1 (TLN1) head domain (THD), residues 1-405; murine TLN1 cDNA is named only for the cell lines; also called WT; source: E. coli (DE3) Rosetta 2, purified (IMAC, SEC); not shown: His10-SUMO, N-terminal, cleaved
T4 sequence (P26039 1-405): as the sequence (P26039 1-405 K402E) above, with E402K counted along it

THD1 K402E [7] = molecular target: T3, THD1 K402E; test: MST; apparent; THD1 or THD1 mutants titrated to 488–β3-CT in the presence of 30-40 µM KIND2; MST buffer
kindlin-2 (KIND2) [8] = molecular target: T1, kindlin-2 (KIND2); test: MST; apparent; KIND2 titrated to 488–β3-CT in the presence of 250–450 µM THD1; MST buffer

B1: ATTO 488-labeled integrin β3 cytoplasmic tail (488–β3-CT) (peptide, UniProt O54890 741-787, looked up)
peptide: {ATTO 488}-KLLITIHDRKEFAKFEEERARAKWDTANNPLYKEATSTFTNITYRGT
notes: integrin β3 cytoplasmic tail (β3-CT); source: synthetic peptide (MPIB Core Facility)
- Kd (kindlin-2 (KIND2) [1]): 119 µM and 121 µM
- Kd (KIND2 Y13A [2]): 9.85 µM and 9.2 µM and 9.18 µM and 7.89 µM
- Kd (KIND2 Y13A [3]): 24 µM and 20.7 µM and 18.8 µM
- Kd (THD1 K402E [4]): 37.8 µM and 35.5 µM and 32.5 µM
- Kd (kindlin-2 (KIND2) [5]): 20.9 µM and 29.1 µM and 29.5 µM
- Kd [6]: 127 µM and 115 µM and 93.9 µM and 85.5 µM
- Kd (THD1 K402E [7]): 54.3 µM and 67.7 µM and 70.3 µM
- Kd (kindlin-2 (KIND2) [8]): 30.7 µM and 85.6 µM and 31.9 µM and 66 µM
